Assay results from IntAct's records for PubMed 17215868.

B1: Vacuolar protein-sorting-associated protein 36 (Saccharomyces cerevisiae), Q06696 (parent)
chain: MEYWHYVETTSSGQPLLREGEKDIFIDQSVGLYHGKSKILQRQRGRIFLTSQRIIYIDDAKPTQNSLGLELDDLAYVNYSSGFLTRSPRLILFFKDPSSKDELGKSAETASADVVSTWVCPICMVSNETQGEFTKDTLPTPICINCGVPADYELTKSSINCSNAIDPNANPQNQFGVNSENICPACTFANHPQIGNCEICGHRLPNASKVRSKLNRLNFHDSRVHIELEKNSLARNKSSHSALSSSSSTGSSTEFVQLSFRKSDGVLFSQATERALENILTEKNKHIFNQNVVSVNGVDMRKGASSHEYNNEVPFIETKLSRIGISSLEKSRENQLLNNDILFNNALTDLNKLMSLATSIERLYKNSNITMKTKTLNLQDESTVNEPKTRRPLLILDREKFLNKELFLDEIAREIYEFTLSEFKDLNSDTNYMIITLVDLYAMYNKSMRIGTGLISPMEMREACERFEHLGLNELKLVKVNKRILCVTSEKFDVVKEKLVDLIGDNPGSDLLRLTQILSSNNSKSNWTLGILMEVLQNCVDEGDLLIDKQLSGIYYYKNSYWPSHI
partner: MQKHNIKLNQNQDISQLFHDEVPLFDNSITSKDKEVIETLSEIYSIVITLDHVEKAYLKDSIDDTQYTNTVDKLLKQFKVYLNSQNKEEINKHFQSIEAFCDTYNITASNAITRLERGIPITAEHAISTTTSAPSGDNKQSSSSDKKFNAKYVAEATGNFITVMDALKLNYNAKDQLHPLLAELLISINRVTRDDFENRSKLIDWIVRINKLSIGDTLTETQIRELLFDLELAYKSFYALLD

Variants of: B1
Settings: with vps28_yeast VPS28, Q02767

| Variant | effect of a mutation on the interaction |
| --- | --- |
| MEYWHYVETTSSGQPLLREGEKDIFIDQSVGLYHGKSKILQRQRGRIFLTSQRIIYIDDAKPTQNSLGLELDDLAYVNYSSGFLTRSPRLILFFKDPSSKDELGKSAETASADVVSTWVCPDCMVSNETQGEFTKDTLPTPICINCGDPADYELTKSSINCSNAIDPNANPQNQFGVNSENICPACTFANHPQIGNCEICGHRLPNASKVRSKLNRLNFHDSRVHIELEKNSLARNKSSHSALSSSSSTGSSTEFVQLSFRKSDGVLFSQATERALENILTEKNKHIFNQNVVSVNGVDMRKGASSHEYNNEVPFIETKLSRIGISSLEKSRENQLLNNDILFNNALTDLNKLMSLATSIERLYKNSNITMKTKTLNLQDESTVNEPKTRRPLLILDREKFLNKELFLDEIAREIYEFTLSEFKDLNSDTNYMIITLVDLYAMYNKSMRIGTGLISPMEMREACERFEHLGLNELKLVKVNKRILCVTSEKFDVVKEKLVDLIGDNPGSDLLRLTQILSSNNSKSNWTLGILMEVLQNCVDEGDLLIDKQLSGIYYYKNSYWPSHI [I122D;V148D] | disrupting interaction |

Variants of: B1
Settings: with vps28_yeast VPS28, Q02767
Remark: another data set of the same source

| Variant | effect of a mutation on the interaction |
| --- | --- |
| MEYWHYVETTSSGQPLLREGEKDIFIDQSVGLYHGKSKILQRQRGRIFLTSQRIIYIDDAKPTQNSLGLELDDLAYVNYSSGFLTRSPRLILFFKDPSSKDELGKSAETASADVVSTWVCPDCMVSNETQGEFTKDTLPTPICINCGVPADYELTKSSINCSNAIDPNANPQNQFGVNSENICPACTFANHPQIGNCEICGHRLPNASKVRSKLNRLNFHDSRVHIELEKNSLARNKSSHSALSSSSSTGSSTEFVQLSFRKSDGVLFSQATERALENILTEKNKHIFNQNVVSVNGVDMRKGASSHEYNNEVPFIETKLSRIGISSLEKSRENQLLNNDILFNNALTDLNKLMSLATSIERLYKNSNITMKTKTLNLQDESTVNEPKTRRPLLILDREKFLNKELFLDEIAREIYEFTLSEFKDLNSDTNYMIITLVDLYAMYNKSMRIGTGLISPMEMREACERFEHLGLNELKLVKVNKRILCVTSEKFDVVKEKLVDLIGDNPGSDLLRLTQILSSNNSKSNWTLGILMEVLQNCVDEGDLLIDKQLSGIYYYKNSYWPSHI [I122D] | disrupting interaction |

Variants of: B1
Settings: with vps28_yeast VPS28, Q02767
Remark: another data set of the same source

| Variant | effect of a mutation on the interaction |
| --- | --- |
| MEYWHYVETTSSGQPLLREGEKDIFIDQSVGLYHGKSKILQRQRGRIFLTSQRIIYIDDAKPTQNSLGLELDDLAYVNYSSGFLTRSPRLILFFKDPSSKDELGKSAETASADVVSTWVCPICMVSNETQGEFTKDTLPTPICINCGDPARYELTKSSINCSNAIDPNANPQNQFGVNSENICPACTFANHPQIGNCEICGHRLPNASKVRSKLNRLNFHDSRVHIELEKNSLARNKSSHSALSSSSSTGSSTEFVQLSFRKSDGVLFSQATERALENILTEKNKHIFNQNVVSVNGVDMRKGASSHEYNNEVPFIETKLSRIGISSLEKSRENQLLNNDILFNNALTDLNKLMSLATSIERLYKNSNITMKTKTLNLQDESTVNEPKTRRPLLILDREKFLNKELFLDEIAREIYEFTLSEFKDLNSDTNYMIITLVDLYAMYNKSMRIGTGLISPMEMREACERFEHLGLNELKLVKVNKRILCVTSEKFDVVKEKLVDLIGDNPGSDLLRLTQILSSNNSKSNWTLGILMEVLQNCVDEGDLLIDKQLSGIYYYKNSYWPSHI [V148D;D151R] | disrupting interaction |

Variants of: B1
Settings: with vps28_yeast VPS28, Q02767
Remark: another data set of the same source

| Variant | effect of a mutation on the interaction |
| --- | --- |
| MEYWHYVETTSSGQPLLREGEKDIFIDQSVGLYHGKSKILQRQRGRIFLTSQRIIYIDDAKPTQNSLGLELDDLAYVNYSSGFLTRSPRLILFFKDPSSKDELGKSAETASADVVSTWVCPICMVSNETQGEFTKDTLPTPICINCGVPARYERTKSSINCSNAIDPNANPQNQFGVNSENICPACTFANHPQIGNCEICGHRLPNASKVRSKLNRLNFHDSRVHIELEKNSLARNKSSHSALSSSSSTGSSTEFVQLSFRKSDGVLFSQATERALENILTEKNKHIFNQNVVSVNGVDMRKGASSHEYNNEVPFIETKLSRIGISSLEKSRENQLLNNDILFNNALTDLNKLMSLATSIERLYKNSNITMKTKTLNLQDESTVNEPKTRRPLLILDREKFLNKELFLDEIAREIYEFTLSEFKDLNSDTNYMIITLVDLYAMYNKSMRIGTGLISPMEMREACERFEHLGLNELKLVKVNKRILCVTSEKFDVVKEKLVDLIGDNPGSDLLRLTQILSSNNSKSNWTLGILMEVLQNCVDEGDLLIDKQLSGIYYYKNSYWPSHI [D151R;L154R] | disrupting interaction |
